The results in this text go back to US20260021168A1.

Data set [1] has as its target ATGAM (equine Anti-thymocyte Globulin). Kind of data set: cell-based or functional assay.
The target of data set [2] is Thymoglobulin (Genzyme), rabbit anti-thymocyte globulin. Description: cell-based or functional assay.
Data set [3] concerns the target alemtuzumab (Campath, anti-CD52, Genzyme), intact IgG. Kind of data set: cell-based or functional assay.
The target of data set [4] is endogenous human serum IgG.

Regarding “imlifidase (IdeS, Immunoglobulin G-degrading enzyme of S. pyogenes)”, the cytotoxic activity of ATGAM in whole blood after imlifidase treatment, CD3+ flow cytometry in data set [1] is > 30 µg/mL. In data set [2], this molecule returned a cleavage of 50 µg/mL rATG in sera of imlifidase-treated subjects, SDS-PAGE and Western blot of 0.5 µg/mL. In data set [3], this molecule showed a block of the cytotoxic effect of alemtuzumab on CD3-positive T-cells in whole blood, flow cytometry of 1.9 µg/mL and an imlifidase concentration sufficient for cleavage in whole blood (SDS-PAGE of plasma, CD3+ flow cytometry) of 4 µg/mL.

B1: imlifidase (IdeS, Immunoglobulin G-degrading enzyme of S. pyogenes) (protein)
chain: DSFSANQEIRYSEVTPYHVTSVWTKGVTPPANFTQGEDVFHAPYVANQGWYDITKTFNGKDDLLCGAATAGNMLHWWFDQNKDQIKRYLEEHPEKQKINFNGEQMFDVKEAIDTKNHQLDSKLFEYFKEKAFPYLSTKHLGVFPDHVIDMFINGYRLSLTNHGPTPVKEGSKDPRGGIFDAVFTRGDQSKLLTSRHDFKEKNLKEISDLIKKELTEGKALGLSHTYANVRINHVINLWGADFDSNGNLKAIYVTDSDSNASIGMKKYFVGVNSAGKVAISAKEIKEDNIGAQVLGLFTLSTGQDSWNQTN
With B1, the “imlifidase concentration sufficient for cleavage in whole blood (SDS-PAGE of plasma)” value in data set [4] was “a concentration of approx. 4 µg/mL imlifidase is sufficient to cleave all serum IgG and 100 µg/mL alemtuzumab”.
